Source: patent US20180186873A1 (CEPHALON, published 2018)
Values joined by “and” are separate entries in the source; they are usually repeats but may differ in a detail not shown here. Equal entries are not always repeated.

What was measured:
recombinant human IL-5 [1] = molecular target: T1, recombinant human IL-5 (human, UniProt P05113 20-134); assay: SPR
recombinant human IL-5 [2] = molecular target: T1, recombinant human IL-5; assay: SPR; remark: listed apart in the source
recombinant human IL-5 [3] = molecular target: T1, recombinant human IL-5; assay: SPR; remark: listed apart in the source
recombinant human IL-5 [4] = molecular target: T1, recombinant human IL-5; assay: SPR; remark: listed apart in the source
recombinant human IL-5 [5] = molecular target: T1, recombinant human IL-5; assay: SPR; remark: listed apart in the source
recombinant human IL-5 [6] = molecular target: T1, recombinant human IL-5; assay: SPR; remark: listed apart in the source
recombinant human IL-5 [7] = molecular target: T2, recombinant human IL-5 (human, UniProt P05113 20-134); assay: Biacore SPR run 5.1
recombinant human IL-5 [8] = molecular target: T2, recombinant human IL-5; assay: Biacore SPR run 5.1; remark: listed apart in the source
recombinant human IL-5 [9] = molecular target: T2, recombinant human IL-5; assay: Biacore SPR run 5.1; remark: listed apart in the source
recombinant human IL-5 [10] = molecular target: T3, recombinant human IL-5 (human, UniProt P05113 20-134); assay: SPR Biacore, Ab on Protein A chip, human IL-5 analyte, run 4.1, average
recombinant human IL-5 [11] = molecular target: T3, recombinant human IL-5; assay: SPR Biacore, purified Ab on Protein A chip, human IL-5 analyte, run 4.1
recombinant human IL-5 [12] = molecular target: T3, recombinant human IL-5; assay: SPR Biacore, Ab on Protein A chip, human IL-5 analyte, run 4.1, replicate 1
recombinant human IL-5 [13] = molecular target: T3, recombinant human IL-5; assay: SPR Biacore, Ab on Protein A chip, human IL-5 analyte, run 4.1, replicate 2
recombinant human IL-5 [14] = molecular target: T3, recombinant human IL-5; assay: SPR Biacore, Ab on Protein A chip, human IL-5 analyte, run 4.1, replicate 3
recombinant human IL-5 [15] = molecular target: T3, recombinant human IL-5; assay: SPR Biacore, Ab on Protein A chip, human IL-5 analyte, run 4.1, replicate 4
recombinant human IL-5 [16] = molecular target: T3, recombinant human IL-5; assay: SPR Biacore, Ab on Protein A chip, human IL-5 analyte, run 4.1, replicate 5

B1: 3A5.040 (antibody, human IgG4 S228P, lambda)
heavy: not shown
light: SYVLTQPPSVSVAPGQTARITCGGNNIGSKNVYWYQQKPGQAPVLVVHDDSDRPSGIPERFSGSNSGNTATLTISRVEVGDEADYSCQVWDSSSDHVVFGGGTKLTVLGQPKAAPSVTLFPPSSEELQANKATLVCLISDFYPGAVTVAWKADSSPVKAGVETTTPSKQSNNKYAASSYLSLTPEQWKSHRSYSCQVTHEGSTVEKTVAPTECS
B1 showed a Kd (recombinant human IL-5 [1]) of 148 pM, a koff (recombinant human IL-5 [1]) of 0.000106 s⁻¹ and a kon (recombinant human IL-5 [1]) of 717000 M⁻¹ s⁻¹. It also gave a Kd (recombinant human IL-5 [2]) of 160 pM, a koff (recombinant human IL-5 [2]) of 0.000115 s⁻¹ and a kon (recombinant human IL-5 [2]) of 720000 M⁻¹ s⁻¹. For the same binder, the Kd (recombinant human IL-5 [3]) was 123 pM, the koff (recombinant human IL-5 [3]) was 8.96e-05 s⁻¹ and the kon (recombinant human IL-5 [3]) was 727000 M⁻¹ s⁻¹. The Kd (recombinant human IL-5 [4]) was 128 pM, the koff (recombinant human IL-5 [4]) was 9.21e-05 s⁻¹ and the kon (recombinant human IL-5 [4]) was 718000 M⁻¹ s⁻¹. It also gave a Kd (recombinant human IL-5 [5]) of 143 pM, a koff (recombinant human IL-5 [5]) of 9.95e-05 s⁻¹ and a kon (recombinant human IL-5 [5]) of 696000 M⁻¹ s⁻¹. It also gave a Kd (recombinant human IL-5 [6]) of 139 pM, a koff (recombinant human IL-5 [6]) of 9.91e-05 s⁻¹ and a kon (recombinant human IL-5 [6]) of 715000 M⁻¹ s⁻¹.

B2: 3A5.040 (antibody, human IgG4 S228P, lambda)
heavy: not shown
light: B1 light
B2 gave a Kd (recombinant human IL-5 [7]) of 153 pM, a koff (recombinant human IL-5 [7]) of 0.000108 s⁻¹ and a kon (recombinant human IL-5 [7]) of 707000 M⁻¹ s⁻¹. The Kd (recombinant human IL-5 [8]) was 186 pM and 175 pM and 187 pM and 177 pM, the koff (recombinant human IL-5 [8]) was 0.000122 s⁻¹ and 0.000112 s⁻¹ and 0.000125 s⁻¹ and 0.000117 s⁻¹ and the kon (recombinant human IL-5 [8]) was 656000 M⁻¹ s⁻¹ and 643000 M⁻¹ s⁻¹ and 667000 M⁻¹ s⁻¹ and 663000 M⁻¹ s⁻¹. The Kd (recombinant human IL-5 [9]) was 181 pM, the koff (recombinant human IL-5 [9]) was 0.000119 s⁻¹ and the kon (recombinant human IL-5 [9]) was 657000 M⁻¹ s⁻¹.

B3: 3A5.040 (antibody, human IgG4 S228P, lambda)
heavy: not shown
light: B1 light
B3 showed a Kd (recombinant human IL-5 [10]) of 106 pM, a koff (recombinant human IL-5 [10]) of 0.000107 s⁻¹ and a kon (recombinant human IL-5 [10]) of 1.01e+06 M⁻¹ s⁻¹. For the same binder, the Kd (recombinant human IL-5 [11]) was 103 pM, the koff (recombinant human IL-5 [11]) was 0.000109 s⁻¹ and the kon (recombinant human IL-5 [11]) was 1.06e+06 M⁻¹ s⁻¹. For the same binder, the Kd (recombinant human IL-5 [12]) was 116 pM, the koff (recombinant human IL-5 [12]) was 0.000116 s⁻¹ and the kon (recombinant human IL-5 [12]) was 1e+06 M⁻¹ s⁻¹. It also gave a Kd (recombinant human IL-5 [13]) of 104 pM, a koff (recombinant human IL-5 [13]) of 0.000107 s⁻¹ and a kon (recombinant human IL-5 [13]) of 1.02e+06 M⁻¹ s⁻¹. The Kd (recombinant human IL-5 [14]) was 109 pM, the koff (recombinant human IL-5 [14]) was 0.000112 s⁻¹ and the kon (recombinant human IL-5 [14]) was 1.03e+06 M⁻¹ s⁻¹. The Kd (recombinant human IL-5 [15]) was 105 pM, the koff (recombinant human IL-5 [15]) was 0.000106 s⁻¹ and the kon (recombinant human IL-5 [15]) was 1.01e+06 M⁻¹ s⁻¹. For the same binder, the Kd (recombinant human IL-5 [16]) was 93.7 pM, the koff (recombinant human IL-5 [16]) was 9.29e-05 s⁻¹ and the kon (recombinant human IL-5 [16]) was 991000 M⁻¹ s⁻¹.
